{"source": "patent US20060172380", "tested_on": "TAB1 (437-504)"}
{"substance": "TAK1-HA", "values": [{"measurement": "in vitro kinase assay of immunoprecipitated TAK1 (activation of XMEK2 (SEK1), phosphorylation of KN-p38 (MPK2))", "result": "TAB1 increases TAK1 kinase activity"}]}
